Legend:
[1] = target: calcineurin; assay: cell-based or functional assay
[2] = target: human cyclophilin A (human) (UniProt P62937); assay: cell-based or functional assay
Sequence of human cyclophilin A (human) (P62937 whole entry): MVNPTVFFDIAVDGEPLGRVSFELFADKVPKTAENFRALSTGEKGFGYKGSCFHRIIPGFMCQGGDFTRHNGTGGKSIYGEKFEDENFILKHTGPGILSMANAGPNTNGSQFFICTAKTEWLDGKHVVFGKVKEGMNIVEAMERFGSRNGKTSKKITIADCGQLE

| Substance | In vitro inhibition CnA IC50 [1] [µM] | In vitro inhibition human CypA IC50 [nM] (protease-coupled PPIase assay) [2] |
| --- | --- | --- |
| CypA/CsA complex | 0.05 |  |
| cyclosporin A (peptide) |  | 9.1 |

Reference: patent publication US20160082074A1
